The text below walks through data of patent publication US20230406921A1.

For assay [1], the target named is CD47 on the surface of human red blood cells (human) (UniProt Q08722). As to the kind of experiment: FACS, human red blood cells, control antibody, 1000 nM. (A flow cytometer gives signals particle by particle.)
Assay [2] deals with CD47 on the surface of tumor cells (human) (UniProt Q08722). As to the kind of experiment: FACS, SKOV-3 tumor cells, control antibody, 100 nM.

On to human IgG4 (antibody), for which the Binding to human red blood cells (MFI) in assay [1] was found to be 797 MFI. This substance also registered a Binding to tumor cells (MFI) in assay [2] of 4640 MFI.
